Results from article PMC11832770, “NADH-bound AIF activates the mitochondrial CHCHD4/MIA40 chaperone by a substrate-mimicry mechanism” (The EMBO Journal, 2025).

Target: T1, Atto488-CHCHD4 (human, UniProt Q8N4Q1 1-142, ATTO 488 (NHS ester) on the N-terminus)
T1 construct: not shown: GB1-6X-His, N-terminal, cleaved
T1 sequence (looked up): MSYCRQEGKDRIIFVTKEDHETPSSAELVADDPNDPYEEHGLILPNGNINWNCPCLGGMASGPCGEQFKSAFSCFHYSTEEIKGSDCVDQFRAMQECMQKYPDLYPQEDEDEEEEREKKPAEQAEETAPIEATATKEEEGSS
Assay: MST; AIF allostery mutants titrated (1.8 nM–30 µM) into 100 nM Atto488-CHCHD4 without NADH; 25 mM HEPES pH 7.5, 150 mM NaCl, 0.01% Tween-20, 5 mM TCEP; 25 °C
Settings: both partners purified

B1: AIF-ΔC-loop (domain or fragment)
chain: VGAGAYAYKTMKEDEKRYNERISGLGLTPEQKQKKAALSASEGEEVPQDKAPSHVPFLLIGGGTAAFAAARSIRARDPGARVLIVSEDPELPYMRPPLSKELWFSDDPNVTKTLRFKQWNGKERSIYFQPPSFYVSAQDLPHIENGGVAVLTGKKVVQLDVRDNMVKLNDGSQITYEKCLIATGGTPRSLSAIDRAGAEVKSRTTLFRKIGDFRSLEKISREVKSITIIGGGFLGSELACALGRKARALGTEVIQLFPEKGNMGKILPEYLSNWTMEKVRREGVKVMPNAIVQSVGVSSGKLLIKLKDGRKVETDHIVAAVGLEPNVELAKTGGLEIDSDFGGFRVNAELQARSNIWVAGDAACFYDIKLGRRRVEHHDHAVVSGRLAGENMTGAAKPYWHQSMFWSDLGPDVGYEAIGLVDSSLPTVGVFYGKGVIFYLRDKVVVGIVLWNIFNRMPIARKIIKDGEQHEDLNEVAKLFNIHED
Which Kd does the source give for B1 here?
The Kd was 4 µM.
